Assay results published in PMC11574045, “A cofactor-induced repressive type of transcription factor condensation can be induced by synthetic peptides to suppress tumorigenesis” (The EMBO Journal, 2024).

B1: FOXN2 (protein, UniProt P32314 1-431, looked up)
Forkhead box protein N2: MGPVIGMTPDKRAETPGAEKIAGLSQIYKMGSLPEAVDAARPKATLVDSESADDELTNLNWLHESTNLLTNFSLGSEGLPIVSPLYDIEGDDVPSFGPACYQNPEKKSATSKPPYSFSLLIYMAIEHSPNKCLPVKEIYSWILDHFPYFATAPTGWKNSVRHNLSLNKCFQKVERSHGKVNGKGSLWCVDPEYKPNLIQALKKQPFSSASSQNGSLSPHYLSSVIKQNQVRNLKESDIDAAAAMMLLNTSIEQGILECEKPLPLKTALQKKRSYGNAFHHPSAVRLQESDSLATSIDPKEDHNYSASSMAAQRCASRSSVSSLSSVDEVYEFIPKNSHVGSDGSEGFHSEEDTDVDYEDDPLGDSGYASQPCAKISEKGQSGKKMRKQTCQEIDEELKEAAGSLLHLAGIRTCLGSLISTAKTQNQKQRKK
B2: GABPB1 (protein, UniProt Q06547 2-395, looked up)
GA-binding protein subunit …: SLVDLGKKLLEAARAGQDDEVRILMANGAPFTTDWLGTSPLHLAAQYGHYSTTEVLLRAGVSRDARTKVDRTPLHMAASEGHASIVEVLLKHGADVNAKDMLKMTALHWATEHNHQEVVELLIKYGADVHTQSKFCKTAFDISIDNGNEDLAEILQIAMQNQINTNPESPDTVTIHAATPQFIIGPGGVVNLTGLVSSENSSKATDETGVSAVQFGNSSTSVLATLAALAEASAPLSNSSETPVVATEEVVTAESVDGAIQQVVSSGGQQVITIVTDGIQLGNLHSIPTSGIGQPIIVTMPDGQQVLTVPATDIAEETVISEEPPAKRQCIEIIENRVESAEIEEREALQKQLDEANREAQKYRQQLLKKEQEAEAYRQKLEAMTRLQTNKEAV
B3: GATAD1 (protein, UniProt Q8WUU5 1-269, looked up)
GATA zinc finger …: MPLGLKPTCSVCKTTSSSMWKKGAQGEILCHHCTGRGGAGSGGAGSGAAGGTGGSGGGGFGAATFASTSATPPQSNGGGGGKQSKQEIHRRSARLRNTKYKSAPAAEKKVSTKGKGRRHIFKLKNPIKAPESVSTIITAESIFYKGVYYQIGDVVSVIDEQDGKPYYAQIRGFIQDQYCEKSAALTWLIPTLSSPRDQFDPASYIIGPEEDLPRKMEYLEFVCHAPSEYFKSRSSPFPTVPTRPEKGYIWTHVGPTPAITIKESVANHL
B4: FOXR2 (protein, UniProt Q6PJQ5 1-311, looked up)
Forkhead box protein R2: MDLKLKDCEFWYSLHGQVPGLLDWDMRNELFLPCTTDQCSLAEQILAKYRVGVMKPPEMPQKRRPSPDGDGPPCEPNLWMWVDPNILCPLGSQEAPKPSGKEDLTNISPFPQPPQKDEGSNCSEDKVVESLPSSSSEQSPLQKQGIHSPSDFELTEEEAEEPDDNSLQSPEMKCYQSQKLWQINNQEKSWQRPPLNCSHLIALALRNNPHCGLSVQEIYNFTRQHFPFFWTAPDGWKSTIHYNLCFLDSFEKVPDSLKDEDNARPRSCLWKLTKEGHRRFWEETRVLAFAQRERIQECMSQPELLTSLFDL
B5: AIRE (protein, UniProt O43918 1-545, looked up)
Autoimmune regulator: MATDAALRRLLRLHRTEIAVAVDSAFPLLHALADHDVVPEDKFQETLHLKEKEGCPQAFHALLSWLLTQDSTAILDFWRVLFKDYNLERYGRLQPILDSFPKDVDLSQPRKGRKPPAVPKALVPPPRLPTKRKASEEARAAAPAALTPRGTASPGSQLKAKPPKKPESSAEQQRLPLGNGIQTMSASVQRAVAMSSGDVPGARGAVEGILIQQVFESGGSKKCIQVGGEFYTPSKFEDSGSGKNKARSSSGPKPLVRAKGAQGAAPGGGEARLGQQGSVPAPLALPSDPQLHQKNEDECAVCRDGGELICCDGCPRAFHLACLSPPLREIPSGTWRCSSCLQATVQEVQPRAEEPRPQEPPVETPLPPGLRSAGEEVRGPPGEPLAGMDTTLVYKHLPAPPSAAPLPGLDSSALHPLLCVGPEGQQNLAPGARCGVCGDGTDVLRCTHCAAAFHWRCHFPAGTSRPGTGLRCRSCSGDVTPAPVEGVLAPSPARLAPGPAKDDTASHEPALHRDDLESLLSEHTFDGILQWAIQSMARPAAPFPS
B6: GDNF (protein, UniProt P39905 78-211, looked up)
Glial cell line-derived …: SPDKQMAVLPRRERNRQAAAANPENSRGKGRRGQRGKNRGCVLTAIHLNVTDLGLGYETKEELIFRYCSGSCDAAETTYDKILKNLSRNRRLVSDKVGQACCRPIAFDDDLSFLDDNLVYHILRKHSAKRCGCI
B7: FOXS1 (protein, UniProt O43638 1-330, looked up)
Forkhead box protein S1: MQQQPLPGPGAPTTEPTKPPYSYIALIAMAIQSSPGQRATLSGIYRYIMGRFAFYRHNRPGWQNSIRHNLSLNECFVKVPRDDRKPGKGSYWTLDPDCHDMFEHGSFLRRRRRFTRQTGAEGTRGPAKARRGPLRATSQDPGVPNATTGRQCSFPPELPDPKGLSFGGLVGAMPASMCPATTDGRPRPPMEPKEISTPKPACPGELPVATSSSSCPAFGFPAGFSEAESFNKAPTPVLSPESGIGSSYQCRLQALNFCMGADPGLEHLLASAAPSPAPPTPPGSLRAPLPLPTDHKEPWVAGGFPVQGGSGYPLGLTPCLYRTPGMFFFE
B8: FOXR1 (protein, UniProt Q6PIV2 1-292, looked up)
Forkhead box protein R1: MGNELFLAFTTSHLPLAEQKLARYKLRIVKPPKLPLEKKPNPDKDGPDYEPNLWMWVNPNIVYPPGKLEVSGRRKREDLTSTLPSSQPPQKEEDASCSEAAGVESLSQSSSKRSPPRKRFAFSPSTWELTEEEEAEDQEDSSSMALPSPHKRAPLQSRRLRQASSQAGRLWSRPPLNYFHLIALALRNSSPCGLNVQQIYSFTRKHFPFFRTAPEGWKNTVRHNLCFRDSFEKVPVSMQGGASTRPRSCLWKLTEEGHRRFAEEARALASTRLESIQQCMSQPDVMPFLFDL
B9: FOXO3 (protein, UniProt O43524 1-673, looked up)
Forkhead box protein O3: MAEAPASPAPLSPLEVELDPEFEPQSRPRSCTWPLQRPELQASPAKPSGETAADSMIPEEEDDEDDEDGGGRAGSAMAIGGGGGSGTLGSGLLLEDSARVLAPGGQDPGSGPATAAGGLSGGTQALLQPQQPLPPPQPGAAGGSGQPRKCSSRRNAWGNLSYADLITRAIESSPDKRLTLSQIYEWMVRCVPYFKDKGDSNSSAGWKNSIRHNLSLHSRFMRVQNEGTGKSSWWIINPDGGKSGKAPRRRAVSMDNSNKYTKSRGRAAKKKAALQTAPESADDSPSQLSKWPGSPTSRSSDELDAWTDFRSRTNSNASTVSGRLSPIMASTELDEVQDDDAPLSPMLYSSSASLSPSVSKPCTVELPRLTDMAGTMNLNDGLTENLMDDLLDNITLPPSQPSPTGGLMQRSSSFPYTTKGSGLGSPTSSFNSTVFGPSSLNSLRQSPMQTIQENKPATFSSMSHYGNQTLQDLLTSDSLSHSDVMMTQSDPLMSQASTAVSAQNSRRNVMLRNDPMMSFAAQPNQGSLVNQNLLHHQHQTQGALGGSRALSNSVSNMGLSESSSLGSAKHQQQSPVSQSMQTLSDSLSGSSLYSTSANLPVMGHEKFPSDLDLDMFNGSLECDMESIIRSELMDADGLDFNFDSLISTQNVVGLNVGNFTGAKQASSQSWVPG
B10: FOXP4 (protein, UniProt Q8IVH2 1-680, looked up)
Forkhead box protein P4: MMVESASETIRSAPSGQNGVGSLSGQADGSSGGATGTTASGTGREVTTGADSNGEMSPAELLHFQQQQALQVARQFLLQQASGLSSPGNNDSKQSASAVQVPVSVAMMSPQMLTPQQMQQILSPPQLQALLQQQQALMLQQLQEYYKKQQEQLHLQLLTQQQAGKPQPKEALGNKQLAFQQQLLQMQQLQQQHLLNLQRQGLVSLQPNQASGPLQTLPQAAVCPTDLPQLWKGEGAPGQPAEDSVKQEGLDLTGTAATATSFAAPPKVSPPLSHHTLPNGQPTVLTSRRDSSSHEETPGSHPLYGHGECKWPGCETLCEDLGQFIKHLNTEHALDDRSTAQCRVQMQVVQQLEIQLAKESERLQAMMAHLHMRPSEPKPFSQPLNPVPGSSSFSKVTVSAADSFPDGLVHPPTSAAAPVTPLRPPGLGSASLHGGGPARRRSSDKFCSPISSELAQNHEFYKNADVRPPFTYASLIRQAILETPDRQLTLNEIYNWFTRMFAYFRRNTATWKNAVRHNLSLHKCFVRVENVKGAVWTVDEREYQKRRPPKMTGSPTLVKNMISGLSYGALNASYQAALAESSFPLLNSPGMLNPGSASSLLPLSHDDVGAPVEPLPSNGSSSPPRLSPPQYSHQVQVKEEPAEAEEDRQPGPPLGAPNPSASGPPEDRDLEEELPGEELS
B11: GATA2 (protein, UniProt P23769 1-480, looked up)
Endothelial transcription …: MEVAPEQPRWMAHPAVLNAQHPDSHHPGLAHNYMEPAQLLPPDEVDVFFNHLDSQGNPYYANPAHARARVSYSPAHARLTGGQMCRPHLLHSPGLPWLDGGKAALSAAAAHHHNPWTVSPFSKTPLHPSAAGGPGGPLSVYPGAGGGSGGGSGSSVASLTPTAAHSGSHLFGFPPTPPKEVSPDPSTTGAASPASSSAGGSAARGEDKDGVKYQVSLTESMKMESGSPLRPGLATMGTQPATHHPIPTYPSYVPAAAHDYSSGLFHPGGFLGGPASSFTPKQRSKARSCSEGRECVNCGATATPLWRRDGTGHYLCNACGLYHKMNGQNRPLIKPKRRLSAARRAGTCCANCQTTTTTLWRRNANGDPVCNACGLYYKLHNVNRPLTMKKEGIQTRNRKMSNKSKKSKKGAECFEELSKCMQEKSSPFSAAALAGHMAPVGHLPPFSHSGHILPTPTPIHPSSSLSFGHPHPSSMVTAMG
B12: GCN512 (protein, UniProt Q92830 2-837, looked up)
Histone acetyltransferase …: AEPSQAPTPAPAAQPRPLQSPAPAPTPTPAPSPASAPIPTPTPAPAPAPAAAPAGSTGTGGPGVGSGGAGSGGDPARPGLSQQQRASQRKAQVRGLPRAKKLEKLGVFSACKANETCKCNGWKNPKPPTAPRMDLQQPAANLSELCRSCEHPLADHVSHLENVSEDEINRLLGMVVDVENLFMSVHKEEDTDTKQVYFYLFKLLRKCILQMTRPVVEGSLGSPPFEKPNIEQGVLNFVQYKFSHLAPRERQTMFELSKMFLLCLNYWKLETPAQFRQRSQAEDVATYKVNYTRWLCYCHVPQSCDSLPRYETTHVFGRSLLRSIFTVTRRQLLEKFRVEKDKLVPEKRTLILTHFPKFLSMLEEEIYGANSPIWESGFTMPPSEGTQLVPRPASVSAAVVPSTPIFSPSMGGGSNSSLSLDSAGAEPMPGEKRTLPENLTLEDAKRLRVMGDIPMELVNEVMLTITDPAAMLGPETSLLSANAARDETARLEERRGIIEFHVIGNSLTPKANRRVLLWLVGLQNVFSHQLPRMPKEYIARLVFDPKHKTLALIKDGRVIGGICFRMFPTQGFTEIVFCAVTSNEQVKGYGTHLMNHLKEYHIKHNILYFLTYADEYAIGYFKKQGFSKDIKVPKSRYLGYIKDYEGATLMECELNPRIPYTELSHIIKKQKEIIKKLIERKQAQIRKVYPGLSCFKEGVRQIPVESVPGIRETGWKPLGKEKGKELKDPDQLYTTLKNLLAQIKSHPSAWPFMEPVKKSEAPDYYEVIRFPIDLKTMTERLRSRYYVTRKLFVADLQRVIANCREYNPPDSEYCRCASALEKFFYFKLKEGGLIDK

System: HEK293FT cells transfected with TF library
Assay: Screening of TF condensates based on fluorescent puncta
Type: cell-based
Conditions: Figure 1B numerical data; TF library screen, one value per transcriptional factor
How it was run: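 Condensate formation is scored as Alexa 488-labelled puncta after Flag- or GAL4-tag immunostaining of fixed HEK293FT cells expressing individual TFs, with a 12 h glucose-free or glucose-containing culture preceding fixation.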

Row | Molecule | Z score of condensed fraction
1 | B1 | -0.402
2 | B2 | -0.05729
3 | B3 | -0.9628
4 | B4 | -0.6086
5 | B5 | 1.2609
6 | B6 | -0.9627
7 | B7 | 2.025
8 | B8 | -0.3141
9 | B9 | -0.5303
10 | B10 | 0.7085
11 | B11 | -0.7866
12 | B12 | -0.5333
